The text below walks through data of article doi:10.1101/743492.

In the assay the target is mCherry-labeled WASp (Drosophila melanogaster). The assay is described as follows: FRET or BRET. In general terms: BRET reads energy transfer from a luciferase to a nearby fluorophore.

As for “eGFP-labeled Cdc42 (from UniProt P40793 1-191) (natural protein)”, the FRET probability worked out at 0.24.
